Values quoted from earlier work as cited in publication PMC3384300.

System: MS2 coat protein (bacteriophage MS2?)

Substance: natural MS2 coat protein aptamer
- Kd: 0.02 nM
